Experimental data: PMC8102337
No end group written: not given here.

How the values were obtained:
[1] = biological target: N-terminally biotinylated HSP27 IXI peptide 178…186 (F185H), unmodified (human); experiment: SPR
[2] = biological target: HSP27 alpha crystallin domain (ACD) (human); experiment: ITC

HSP27 alpha crystallin domain (ACD) (domain or fragment)
Kd [1]: 3.14 µM

B1: HSP27 IXI peptide 178…186 (F185H), unmodified, without biotin (peptide)
peptide: EITIPVTHE
modifications: not fully specified
Kd [2]: 14.3 µM
